Results on two substances are retold here after patent US20030037355.

Series [1] relates to 2C7 six-finger zinc finger protein (artificial). The conditions noted are these: CITED earlier work; cited from earlier work.
For series [2], the target named is C7-VP64 three-finger activator (artificial) (UniProt P08046). Description: cell_activity. Conditions: tobacco protoplasts, Reporter II pc7rbTATA; Reporter I 10 fold.
For series [3], the system named is SID-2C7 six-finger repressor (artificial). As to the kind of experiment: cell_activity. The conditions noted are these: tobacco protoplasts; almost 2 fold in maize.
For series [4], the system named is e2c six-finger zinc finger protein (artificial). The conditions noted are these: CITED Beerli et al. 1998; cited from earlier work.

“GCGTGGGCGGCGTGGGCG (double strand) [2C7 binding site (six tandem repeats in reporters)]”: in series [1], the Kd was 0.46 nM. The activity (fold activation) in series [2] turned out to be 100. This substance also displayed an activity (fold repression) in series [3] of 5.
Regarding e2c target site, the Kd in series [4] is 0.5 nM.
